Results from patent US20180044406A1 (UNIVERSITY OF ROCHESTER, published 2018).

Target: T1, recombinant His-glucosaminidase (His-Gmd), 6-His tagged 53 kDa glucosaminidase subunit of S. aureus autolysin (Staphylococcus aureus, UniProt A7X0T9 776-1254)
T1 sequence: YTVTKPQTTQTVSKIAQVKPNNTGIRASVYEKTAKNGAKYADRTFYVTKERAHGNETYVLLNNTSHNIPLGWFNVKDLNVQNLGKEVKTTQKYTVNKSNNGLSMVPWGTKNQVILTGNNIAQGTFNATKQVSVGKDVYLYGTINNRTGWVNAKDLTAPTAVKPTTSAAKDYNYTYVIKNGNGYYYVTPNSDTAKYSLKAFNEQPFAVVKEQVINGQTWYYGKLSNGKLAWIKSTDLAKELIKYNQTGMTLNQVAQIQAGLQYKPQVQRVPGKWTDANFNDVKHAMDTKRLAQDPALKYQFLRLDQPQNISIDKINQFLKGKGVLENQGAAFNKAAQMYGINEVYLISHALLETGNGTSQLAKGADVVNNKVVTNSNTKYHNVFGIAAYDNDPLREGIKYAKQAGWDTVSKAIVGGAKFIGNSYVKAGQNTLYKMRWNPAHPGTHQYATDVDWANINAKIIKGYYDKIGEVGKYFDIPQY
Assay: cell-based or functional assay

B1: monoclonal antibody 4A12 (mouse IgG1) (antibody, V domains shown)
VH: QVQLQQPGAELVGPGTSVKLSCKSSGYTFTKYWMHWLKQRPGQGLEWIGVIDPSDSYTNYNQKFKGKATLTVDTSSSTAYLQLSSLTSEDSAVYYCANYYGSYYDVMDFWGQGTSVTVSS
VL: DVQITQSPSYLAASPGETITINCRASKSISKYLAWYQEKPGKTNKLLICFGSTLQSGTPSRFSGSGSGTDFTLTISSLEPEDFATYYCQQHNEYPLTFGAGTKLELKR
  fold difference, mouse 4A12 against h4A12, in the minimum concentration able to achieve ~100% inhibition of Gmd activity: ~3 fold
